Results as given in patent US20230374148A1, “BINDING MOLECULES THAT MULTIMERISE CD45” (UCB BIOPHARMA SRL, priority 2020, published 2023).

Assays:
[1] = molecular target: T1, human CD45 on cells (PBMC, whole blood cells, macrophages, leukaemia and lymphoma cell lines) (human, UniProt P08575 26-1306); experiment: cell-based or functional assay
T1 sequence: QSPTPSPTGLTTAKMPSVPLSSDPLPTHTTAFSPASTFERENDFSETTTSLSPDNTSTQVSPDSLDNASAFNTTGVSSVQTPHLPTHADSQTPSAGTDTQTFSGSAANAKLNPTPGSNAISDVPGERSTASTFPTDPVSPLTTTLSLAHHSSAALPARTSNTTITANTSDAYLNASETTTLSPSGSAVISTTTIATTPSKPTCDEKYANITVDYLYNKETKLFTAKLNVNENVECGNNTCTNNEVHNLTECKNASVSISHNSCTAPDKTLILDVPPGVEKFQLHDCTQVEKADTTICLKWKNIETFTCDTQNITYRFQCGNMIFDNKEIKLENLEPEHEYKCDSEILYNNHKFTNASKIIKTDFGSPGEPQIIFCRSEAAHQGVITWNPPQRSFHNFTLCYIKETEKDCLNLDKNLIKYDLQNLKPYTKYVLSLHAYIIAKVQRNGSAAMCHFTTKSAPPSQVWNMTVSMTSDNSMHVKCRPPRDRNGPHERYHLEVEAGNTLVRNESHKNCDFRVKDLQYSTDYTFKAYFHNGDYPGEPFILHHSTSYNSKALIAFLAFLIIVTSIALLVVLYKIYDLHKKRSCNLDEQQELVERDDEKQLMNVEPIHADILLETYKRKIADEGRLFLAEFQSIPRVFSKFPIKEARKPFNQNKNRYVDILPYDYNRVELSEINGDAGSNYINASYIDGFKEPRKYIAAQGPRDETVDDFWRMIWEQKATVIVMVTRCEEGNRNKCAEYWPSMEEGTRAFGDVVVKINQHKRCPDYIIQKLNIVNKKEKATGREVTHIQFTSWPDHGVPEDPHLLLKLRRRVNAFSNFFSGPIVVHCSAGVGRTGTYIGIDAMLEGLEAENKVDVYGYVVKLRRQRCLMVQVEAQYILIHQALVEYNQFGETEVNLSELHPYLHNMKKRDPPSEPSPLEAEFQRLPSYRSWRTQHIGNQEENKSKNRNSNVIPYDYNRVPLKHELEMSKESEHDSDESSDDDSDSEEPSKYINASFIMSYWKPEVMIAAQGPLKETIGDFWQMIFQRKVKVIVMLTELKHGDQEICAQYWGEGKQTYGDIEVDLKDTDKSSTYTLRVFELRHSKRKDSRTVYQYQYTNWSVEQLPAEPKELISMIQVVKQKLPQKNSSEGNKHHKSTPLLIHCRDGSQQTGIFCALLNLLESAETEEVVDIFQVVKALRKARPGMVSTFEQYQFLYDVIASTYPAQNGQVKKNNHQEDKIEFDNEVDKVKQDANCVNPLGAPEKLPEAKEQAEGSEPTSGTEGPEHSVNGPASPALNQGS

[2] = molecular target: T1, human CD45 on cells (PBMC, whole blood …); experiment: cell-based or functional assay; remark: listed apart in the source
[3] = molecular target: T1, human CD45 on cells (PBMC, whole blood …); experiment: cell-based or functional assay; remark: listed apart in the source
[4] = molecular target: T1, human CD45 on cells (PBMC, whole blood …); experiment: cell-based or functional assay; remark: listed apart in the source
[5] = molecular target: T2, CD45 domains 1-4 of the extracellular domain (UniProtKB P08575, residues 225-573) with C-terminal TEV cleavage site and 10-His tag (human); experiment: sedimentation velocity analytical ultracentrifugation, molar 1:1 mixture of CD45 ECD and BYbe
[6] = molecular target: T2, CD45 domains 1-4 of the extracellular domain; experiment: mass photometry of the mixture of CD45 ECD and 4133-6294 BYbe, not pre-incubated [C]
[7] = molecular target: T2, CD45 domains 1-4 of the extracellular domain; experiment: mass of the peaks seen in the mixture of CD45 ECD and 4133-6294 BYbe in solution; theoretical mass 138 kDa
[8] = molecular target: T2, CD45 domains 1-4 of the extracellular domain; experiment: mass of the peaks seen in the mixture of CD45 ECD and 4133-6294 BYbe in solution; theoretical mass 276 kDa
[9] = molecular target: T2, CD45 domains 1-4 of the extracellular domain; experiment: mass of the peaks seen in the mixture of CD45 ECD and 4133-6294 BYbe in solution; theoretical mass 414 kDa
[10] = molecular target: T2, CD45 domains 1-4 of the extracellular domain; experiment: mass of the peaks seen in the mixture of CD45 ECD and 4133-6294 BYbe in solution; theoretical mass 552 kDa
[11] = molecular target: T2, CD45 domains 1-4 of the extracellular domain; experiment: sedimentation peaks of the mixture of CD45 ECD and 4133-6294 BYbe; stoichiometry assigned from modelled S values

B1: 4133-6294 BYbe (bispecific antibody)
heavy: QEQLVESGGGLVQPEGSLTLTCTASGFSFSGNYYMCWVRQAPGKGLEWIGCLYTGSSGSTYYASWAKGRFTISKTSSTTVTLQMTSLTAADTATYFCARDLGYEIDGYGGLWGQGTLVTVSSGQPKAPSVFPLAPCCGDTPSSTVTLGCLVKGYLPEPVTVTWNSGTLTNGVRTFPSVRQSSGLYSLSSVVSVTSSSQPVTCNVAHPATNTKVDKTVAPSTCSKPGGGGSGGGGSEVQLVESGAELARPGASVKMSCKASGYTFTSYTMHWVKQRPGQCLEWIGYINPSSGYTEYNQKFKDKTTLTADKSSSTAYLQLSSLTSEDSAVYYCARVGDGFYPSWLAYWGQGTLVTVSSGGGGSGGGGSGGGGSGGGGSDIQMTQSPKFLLVSAGDRVTITCKASQSVRNDVAWYQQKPGQSPKLLIFYASKRYTGVPDRFTGSGYGTDFTFTISTVQAEDLAVYFCQQDYSSPTTFGCGTKLEIK
light: AQVLTQTPSPVSAVVGGTVSISCQASQSVYNNNNLSWYQQKPGQPPKLLIYDASKLASGVPSRFKGSGSGTQFTLTISGVQCDDAATYYCLGGYYSSGWYFAFGGGTKVVVKRTPVAPTVLIFPPAADQVATGTVTIVCVANKYFPDVTVTWEVDGTTQTTGIENSKTPQNSADCTYNLSSTLTLTSTQYNSHKEYTCKVTQGTTSVVQSFNRGDC
- EC50 of reduction of lymphocytes in PBMC, 24 h (UCB Cone-802) [1]: 0.15 nM
- EC50 of reduction of lymphocytes in PBMC, 24 h (UCB Cone-811) [1]: 0.1 nM
- EC50 of subset cell reduction, B cells in PBMC, 24 h [2]: 1.5 nM
- EC50 of subset cell reduction, CD4+ Memory cells in PBMC, 24 h [2]: 0.222 nM
- EC50 of subset cell reduction, CD4+ Naive cells in PBMC, 24 h [2]: 0.524 nM
- EC50 of subset cell reduction, CD4+ cells in PBMC, 24 h [2]: 0.302 nM
- EC50 of subset cell reduction, CD8+ cells in PBMC, 24 h [2]: 0.187 nM
- EC50 of reduction, CD4+ cells in whole blood, 5 h, Donor 1 [3]: 0.25 nM
- EC50 of reduction, CD4+ cells in whole blood, 5 h, Donor 2 [3]: 0.33 nM
- EC50 of reduction, total lymphocytes in whole blood, 5 h, Donor 1 [3]: 0.37 nM
- EC50 of reduction, total lymphocytes in whole blood, 5 h, Donor 2 [3]: 5.99 nM
- EC50 of % cell reduction, CCRF-SB cells, 21 h [4]: 0.308 nM
- EC50 of % cell reduction, Dakiki cells, 21 h [4]: 0.309 nM
- EC50 of % cell reduction, Jurkat cells, 21 h [4]: 0.117 nM
- EC50 of % cell reduction, MC116 cells, 21 h [4]: 0.005 nM
- EC50 of % cell reduction, NU-DUL-1 cells, 21 h [4]: 0.497 nM
- EC50 of % cell reduction, OCI-Ly3 cells, 21 h [4]: 0.349 nM
- EC50 of % cell reduction, Raji cells, 21 h [4]: 0.397 nM
- EC50 of % cell reduction, Ramos cells, 21 h [4]: 0.14 nM
- EC50 of % cell reduction, SU-DHL-4 cells, 21 h [4]: 0.141 nM
- EC50 of % cell reduction, SU-DHL-5 cells, 21 h [4]: 0.043 nM
- EC50 of % cell reduction, SU-DHL-8 cells, 21 h [4]: 1.46 nM
- EC50 of % cell reduction, THP-1 cells, 21 h [4]: 1.54 nM
- Percentage of area under the curve (CD45 1:1 BYbe complex) [5]: 12%
- Percentage of area under the curve (CD45 2:2 BYbe complex) [5]: 37.7%
- Percentage of area under the curve (CD45 3:3 BYbe complex) [5]: 35.7%
- Percentage of area under the curve (CD45 4:4 BYbe complex) [5]: 3.46%
- Percentage of area under the curve (unbound CD45 in the 1:1 mixture) [5]: 9.21%
- counts in the peak at 75 kDa (arrow from the BYbe schematic; unbound BYbe according to the text) [6]: 3830 counts
- counts in the peak at 136 kDa, complex marked (1x) [6]: 3060 counts
- counts in the peak at 274 kDa, complex marked (2x) [6]: 3510 counts
- counts in the peak at 415 kDa, complex marked (3x) [6]: 464 counts
- counts in the peak at 555 kDa, complex marked (4x) [6]: 137 counts
- percent of counts in the peak at 75 kDa (arrow from the BYbe schematic; unbound BYbe according to the text) [6]: 31%
- percent of counts in the peak at 136 kDa, complex marked (1x) [6]: 24%
- percent of counts in the peak at 274 kDa, complex marked (2x) [6]: 28%
- percent of counts in the peak at 415 kDa, complex marked (3x) [6]: 4%
- percent of counts in the peak at 555 kDa, complex marked (4x) [6]: 1%
- observed mass of the complex 1× (CD45 + BYbe) [7]: 136 kDa
- observed mass of the complex 2× (CD45 + BYbe) [8]: 274 kDa
- observed mass of the complex 3× (CD45 + BYbe) [9]: 415 kDa
- observed mass of the complex 4× (CD45 + BYbe) [10]: 555 kDa
- experimental S value of the complex CD45 1:1 BYbe [11]: 6.9 S
- experimental S value of the complex CD45 2:1 BYbe [11]: 7.15 S
- experimental S value of the complex CD45 2:2 BYbe [11]: 8.78 S
- experimental S value of the complex CD45 3:3 BYbe [11]: 10 S
- experimental S value of the complex CD45 4:3 BYbe [11]: 11.1 S
- experimental S value of the complex CD45 4:4 BYbe [11]: 13.3 S
